# Measured values from the RNAGym collection of RNA variant scans (doi:10.1073/pnas.2313332121).
# This sample holds only a part of the variants without activity.
# B1: TPR 5TU (parent)
# chain: GGAUCUUCUCGAUCUAACAAAAAAGACAAAUCUGCCACAAAGCUUGAGAGCAUCUUCGGAUGCAGAGGCGGCAGCCUUCGGUGGCGCGAUAGCGCCAACGUUCUCAACUAUGACACGCAAAACGCGUGCUCCGUUGAAUGGAGUUUAUCAUG
# Variants of: B1
# Test: polymerase ribozyme fitness, log enrichment relative to wild type (log ratio); higher = more active; in vitro selection for triplet polymerase activity
# Procedure, shortened: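 Input and output libraries were sequenced on Illumina after a single in vitro selection round, run in triplicate on PCR-built, transcribed mutant libraries of each subunit of a heterodimeric triplet polymerase ribozyme. Selection annealed libraries to a biotinylated primer, the partner subunit and triplets, incubated them frozen at −7 °C, then gel-excised extended constructs for streptavidin-bead capture and RT-PCR. Genotypes with ≥10 input reads and ≥1 read per output were kept. Fitness is the logarithm, taken in base 2, of genotype enrichment divided by wild-type enrichment, using inverse-variance-weighted replicate averages.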
row,Variant,polymerase ribozyme fitness (log ratio)
1,GGAUCUUCUCGAUCUAACAAAAAAGACAAAUCUGCCACAAAGCUUGAGAGCAUUUUCGGAUGCAGAGGCGGCAGCCUUCGGUGGCGCGAUAGCGGCAACGUUCUCAACUAUGACACGCAAAACGCGUGCUCCGUUGAAUGGAGUUUAUCAUG [C54U C95G],-1.07
2,GGAUCUUCUCGAUCUAACAAAAAAGACAAAUCUGCCACAAAGCUUGAGAGCAUUUUCGGAUGCAGAGGCGGCAGCCUUCGGUGGCGCGAUAGCGUCAACGUUCUCAACUAUGACACGCAAAACGCGUGCUCCGUUGAAUGGAGUUUAUCAUG [C54U C95U],-0.851
3,GGAUCUUCUCGAUCUAACAAAAAAGACAAAUCUGCCACAAAGCUUGAGAGCAUUUUCGGAUGCAGAGGCGGCAGCCUUCGGUGGCGCGAUAGCGCUAACGUUCUCAACUAUGACACGUAAAACGCGUGCUCCGUUGAAUGGAGUUUAUCAUG [C54U C96U C118U],-0.868
4,GGAUCUUCUCGAUCUAACAAAAAAGACAAAUCUGCCACAAAGCUUGAGAGCAUUUUCGCGUGCAGAGGCGGCAGCCUUCGGUGGCGCGAUAGCGCCAACGUUCUCAACUAUGACACGCAAAUCGCGUGCUCCGUUGAAUGGAGUUUAUCAUG [C54U G59C A60G A122U],0.186
5,GGAUCUUCUCGAUCUAACAAAAAAGACAAAUCUGCCACAAAGCUUGAGAGCAUUUUCCGAUGCAGAGGCGGCAGCCUUCGGUGGCGCGAUAGCGCCAACGUUCUCAACUAUGACACGCAAAACGCGUGCUCCGUUGAAUGGAGUUUAUCAUG [C54U G58C],-0.858
6,GGAUCUUCUCGAUCUAACAAAAAAGACAAAUCUGCCACAAAGCUUGAGAGCAUUUUCAGAUGCAGAGGCGGCAGCCUUCGGUGGCGCGAUAGCGCCAACGUUCUCAACUAUGACACGCAAAACGCGUGCUCCGUUGAAUGGAGUUUAUCAUG [C54U G58A],0.498
7,GGAUCUUCUCGAUCUAACAAAAAAGACAAAUCUGCCACAAAGCUUGAGAGCAUUUUCGGAUGCAGAGGCGGCAGCCUUCGGUGGCGCGAUAGCGCCAACGUUCUCAACUAUGACACGCAAAACGGGUGCUCCGUUGAAUGGAGUUUAUCAUG [C54U C125G],-1.05
8,GGAUCUUCUCGAUCUAACAAAAAAGACAAAUCUGCCACAAAGCUUGAGAGCAUUUUCGGAUGCAGAGGCGGCAGCCUUCGGUGGCGCGAUAGCGCCAAUGUUCUCAACUAUGACACGCAAAACGCGUGCUCCGUUGAAUGGAGUUUAUCAUG [C54U C99U],-0.322
9,GGAUCUUCUCGAUCUAACAAAAAAGACAAAUCUGCCACAAAGCUUGAGAGCAUUUUCGGAUGCAGAGGCGGCAGCCUUCGGUGGCGCGAUAGCGCCAACGUUCUAAACUAUGACACGCAAAACGCGUGCUGCGUUGAAUGGAGUUUAUCAUG [C54U C105A C131G],≤ -4.2
10,GGAUCUUCUCGAUCUAACAAAAAAGACAAAUCUGCCACAAAGCUUGAGAGCAUUUUCGGAUGCAGAGGCGGCAGCCUUCGGUGGCGCGAUAGUGCCAACGUUCUCAACUAUGACACGCAAAACGCGUGCUCCGUUGAAUGGAGCUGAUCAUG [C54U C93U U144C U146G],-3.87
11,GGAUCUUCUCGAUCUAACAAAAAAGACAAAUCUGCCACAAAGCUUGAGAGCAUUUUCGGAUGCAGAGGCGGCAGCCUUCGGUGGAGCGAUAGCGCUCGCGUUCUCAACUAUGACACGCAAUACGCGUGCUCCGUUGAAUGGAGUUUAUCAUG [C54U C85A C96U A97C A98G A121U],≤ -4.2
12,GGAUCUUCUCGAUCUAACAAAAAAGACAAAUCUGCCACAAAGCUUGAGAGCAUUUUCGGAUGCAGAGGCGGCAGCCUUCGGUGGCGCGAUAGGGCCAACGUUCUCAACUAUGACACGCAAAACGCGUGCUCCGUUGAAUGGAGUAUAUCAUG [C54U C93G U145A],≤ -4.2
13,GGAUCUUCUCGAUCUAACAAAAAAGACAAAUCUGCCACAAAGCUUGAGAGCAUUUUCGGAUGCAGAGGCGGCAGCCUUCGGUGGCGCGAUAGCGCCAAGGGUCUCAACUAUGACACGCAAAACGCGUGCUCCGUUGAAUGGUGUUUAUCAUG [C54U C99G U101G A142U],-3.57
14,GGAUCUUCUCGAUCUAACAAAAAAGACAAAUCUGCCACAAAGCUUGAGAGCAUUUUCGGAUGCAGAGGCGGCAGCCUUCGGUGGGGGGAUAGCGCCAACGUUCUCAACUAUGACACGCAAAACGCGUGCUCCGUUGAAUGGAGUUUAUCAUG [C54U C85G C87G],≤ -4.2
15,GGAUCUUCUCGAUCUAACAAAAAAGACAAAUCUGCCACAAAGCUUGAGAGCAUUUUCGGAUGCAGAGGCGGCAGCCUUCGGUGGCGCGAUAGUGCGAACGUUCUCAACUAUGACACGCAAAACGCGUGCUCCGUAGAAUGGAGUUUAUCAUG [C54U C93U C96G U135A],-3.57
16,GGAUCUUCUCGAUCUAACAAAAAAGACAAAUCUGCCACAAAGCUUGAGAGCAUUUUCGGAUGCAGAGGCGGCAGCCUUCGGUGGCGCGAUAGCGGCAGCGUUCUCAACUAUGACACGCAAAACGCGUGCUCCGUUGAAUGGAGUUUAUCAUG [C54U C95G A98G],-2.01
17,GGAUCUUCUCGAUCUAACAAAAAAGACAAAUCUGCCACAAAGCUUGAGAGCAUUUUCGGAUGCAGAGGCGGCAGCCUUCGGUGGCGCGAUAGUGCCAACGUUCUCAACUAUGACACGCAAAACGCGUGCUCCGUUGAAUGGAGUUUAUCAUG [C54U C93U],-1.99
18,GGAUCUUCUCGAUCUAACAAAAAAGACAAAUCUGCCACAAAGCUUGAGAGCAUUUUCGGAUGCAGAGGCGGCAGCCUUCGGUGGCGCGAUAGGGCCAACGUUCUCAACUAUGACACGCAAAACGCGUGCUCCGUUGAAUGGAGUUUAUCAUG [C54U C93G],-3.72
19,GGAUCUUCUCGAUCUAACAAAAAAGACAAAUCUGCCACAAAGCUUGAGAGCAUUUUCGGAUGCAGAGGCGGCAGCCUUCGGUGGCGUGAUAGCGCCAACGUUCUCAACUAUGACUCGCAAAACGCGUGCUCCGUUGAAUGGAGUUUAUCAUG [C54U C87U A115U],-1.85
